Measured values from PMC6735679.
Like-named read-outs stand apart in the source and are kept apart here.

Key:
CNBP [1] = target: T1, CNBP (Homo sapiens, UniProt P62633 1-177); assay: EMSA
CNBP [2] = target: T1, CNBP; assay: EMSA; remark: listed apart in the source

T1 sequence (P62633 whole entry): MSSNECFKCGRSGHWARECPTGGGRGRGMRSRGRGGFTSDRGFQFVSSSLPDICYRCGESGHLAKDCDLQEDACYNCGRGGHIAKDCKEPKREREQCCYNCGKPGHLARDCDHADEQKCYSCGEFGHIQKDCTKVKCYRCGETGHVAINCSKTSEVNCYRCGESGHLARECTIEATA

Binder | binding result (CNBP [1]) | binding result (CNBP [2])
GAGGGGGAGGGGGG (ssDNA) [C14] | binds | 
TGGGGT (ssDNA) [TG4T (single strand)] |  | no binding
